{"source": "paper PMC5650626", "about": "“Deletion of MtrA Inhibits Cellular Development of Streptomyces coelicolor and Alters Expression of Developmental Regulatory Genes”", "key": {"[1]": {"target": "T1, MtrA (MtrASCO) (Streptomyces coelicolor M145) (UniProt Q9KYW8)", "T1 sequence": "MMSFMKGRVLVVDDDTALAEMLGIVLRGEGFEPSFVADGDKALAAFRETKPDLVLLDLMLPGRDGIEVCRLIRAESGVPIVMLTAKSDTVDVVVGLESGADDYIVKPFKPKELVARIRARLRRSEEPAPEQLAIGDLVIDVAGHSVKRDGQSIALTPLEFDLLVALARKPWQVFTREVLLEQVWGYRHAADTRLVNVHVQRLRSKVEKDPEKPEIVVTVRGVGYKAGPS", "experiment": "EMSA", "conditions": "EMSA: 20 mM Tris-HCl pH 8.0, 2 mM EDTA, 20 mM KCl, 0.5 mM DTT, 4% Ficoll-400, 2 ug poly(dI-dC), 50 fmol probe, 20 ul, room temperature 15 min; footprinting …"}, "MtrA (MtrASCO) [2]": {"target": "T2, MtrA (MtrASCO) (Streptomyces coelicolor M145, UniProt Q9KYW8 1-229)", "T2 sequence": "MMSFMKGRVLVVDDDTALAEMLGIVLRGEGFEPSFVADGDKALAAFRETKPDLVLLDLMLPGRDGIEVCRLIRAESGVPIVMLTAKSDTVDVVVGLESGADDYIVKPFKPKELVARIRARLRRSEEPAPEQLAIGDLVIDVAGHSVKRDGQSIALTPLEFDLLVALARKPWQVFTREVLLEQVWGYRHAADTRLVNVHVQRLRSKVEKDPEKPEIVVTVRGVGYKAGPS", "experiment": "EMSA; shift increases with MtrA; EMSA: 20 mM Tris-HCl pH 8.0, 2 mM EDTA, 20 mM KCl, 0.5 mM DTT, 4% Ficoll-400, 2 ug poly(dI-dC), 50 fmol probe, 20 ul, room temperature 15 min; footprinting 25 C, 30 min, 400 ng probe, 40 ul, poly(dI-dC)", "conditions": "protein: recombinant; tags: His-tag (pET28a NdeI/HindIII; native stop codon in primer); chain copies: 2; label: biotin-11-UTP 3' end; blunt"}, "MtrA (MtrASCO) [3]": {"target": "T2, MtrA (MtrASCO)", "experiment": "EMSA; almost complete shift at 1.6 ug; EMSA: 20 mM Tris-HCl pH 8.0, 2 mM EDTA, 20 mM KCl, 0.5 mM DTT, 4% Ficoll-400, 2 ug poly(dI-dC), 50 fmol probe, 20 ul, room temperature 15 min; footprinting 25 C, 30 min, 400 ng probe, 40 ul, poly(dI-dC)", "conditions": "protein: recombinant; tags: His-tag (pET28a NdeI/HindIII; native stop codon in primer); chain copies: 2; label: biotin-11-UTP 3' end; blunt"}, "MtrA (MtrASCO) [4]": {"target": "T2, MtrA (MtrASCO)", "experiment": "EMSA; complete shift at lowest amount (1.6 ug); EMSA: 20 mM Tris-HCl pH 8.0, 2 mM EDTA, 20 mM KCl, 0.5 mM DTT, 4% Ficoll-400, 2 ug poly(dI-dC), 50 fmol probe, 20 ul, room temperature 15 min; footprinting 25 C, 30 min, 400 ng probe, 40 ul, poly(dI-dC)", "conditions": "protein: recombinant; tags: His-tag (pET28a NdeI/HindIII; native stop codon in primer); chain copies: 2; label: biotin-11-UTP 3' end; blunt"}, "MtrA (MtrASCO) [5]": {"target": "T2, MtrA (MtrASCO)", "experiment": "EMSA; stronger than whiI-b; 2.1-6.3 ug MtrA; EMSA: 20 mM Tris-HCl pH 8.0, 2 mM EDTA, 20 mM KCl, 0.5 mM DTT, 4% Ficoll-400, 2 ug poly(dI-dC), 50 fmol probe, 20 ul, room temperature 15 min; footprinting 25 C, 30 min, 400 ng probe, 40 ul, poly(dI-dC)", "conditions": "protein: recombinant; tags: His-tag (pET28a NdeI/HindIII; native stop codon in primer); chain copies: 2; label: biotin-11-UTP 3' end; blunt"}, "MtrA (MtrASCO) [6]": {"target": "T2, MtrA (MtrASCO)", "experiment": "EMSA; lower affinity than whiI-a; 2.1-6.3 ug MtrA; EMSA: 20 mM Tris-HCl pH 8.0, 2 mM EDTA, 20 mM KCl, 0.5 mM DTT, 4% Ficoll-400, 2 ug poly(dI-dC), 50 fmol probe, 20 ul, room temperature 15 min; footprinting 25 C, 30 min, 400 ng probe, 40 ul, poly(dI-dC)", "conditions": "protein: recombinant; tags: His-tag (pET28a NdeI/HindIII; native stop codon in primer); chain copies: 2; label: biotin-11-UTP 3' end; blunt"}}, "data": [{"molecule": "CACCAGCCGTCGTTCATCGTTCCGGGCAGGGGGTCCGCACGTCCGGAGGAGGTTCCGTCACTTTGTCGACACGGCCACTTTCGGCCTCGTATCGACAAAGTGCGGAACCGTTCGATCTTCGAATGATCGACAGTGTGTCCGAATTGCTCGGATTGTTACTCACCAGATCGTGATCATTCTCTAAAGGCGGACGCGTTCGGTGCCGAAGACGACTGTGACCTTGAAAGCACGGTTCGTCCCGGCTTAAACCCCATGAGCCGGCCCCGTCCCCGCACCCCAGGAGGCCTGGTGTC (double strand) [whiI upstream PCR probe (293 bp)]", "values": [{"measurement": "binding", "setting": "[1]", "value": "binds"}]}, {"molecule": "CGTCAGGGATGCGTCAGGAGTGCGTCAGGGGTCCGAGAGGGGTCCGACCGAGGTGCGCCGGGGCCTTCATGCATGCCCCGTACGGCCCGTCGGGGCCCGCCACGGCGCAGGCTTCACCCGCTTAACCCTCCTGGTTCGCGGTCCCCGCGGGCACGGCCCACGATCGTGCTTACGCGACCGTCGCACCCCGCCGGCCTGGCGGGCGCCGCCGACGATCGCCCCAGTCCACGAGGATGACCGGAGAAGAGGTGGGCCGGATGACGGTCT (double strand) [whiE-ORF1 upstream PCR probe (267 bp)]", "values": [{"measurement": "binding", "setting": "[1]", "value": "no binding"}]}, {"molecule": "GGACATATGGCTCCCCGGACAAGGTGTCGACGCGGCAGGCTGTGTTGTCGGCCGCGCGGCTGGTAACTCACTGTGAGGTTACGCAGCGTTACTCTGCTGCGTCAAGCCGAATGGTCCGCACCGACTCTTCCGTGGTATTCGCCATCCATTACTCCGTGCGGGTGATCGATGTGGGGCAGAGGAGTGACGGGGGAGTGTCAGGGGGGTCATCGGAGAGGTTCTGTGAGCCTGCTACCGTAGGTGGCGCATATCCGACGTCCTTTAAGGTCCGTCCCGTGAGGC (double strand) [bldD upstream PCR probe (282 bp)]", "values": [{"measurement": "binding", "setting": "[1]", "value": "binds"}]}, {"molecule": "GTCGTCCCCGATGGCAGGTGTAGGCCCCGCGGGTGCGTTCAGTGCCGTCACGGTTGATGCGGCAGCGGCCCGGCGTCGCGAACTTCCTTGACGTCGTGTGCCGTCGGCCGGCCGTCGCCGGCCGTGAGCCAGGGTTCTCCCGGGGCCGTGCTGCCCCTCCGTCTTTGTTCCCCTCGCGCGCTGCGAAAGACGTACGCCGTGCGAAGGCCGTCGGCTCCCGCACTCCCGACGACCTCCAACCTGTGAAATGGACGAATCATGACGA (double strand) [bldKA upstream PCR probe (265 bp)]", "values": [{"measurement": "binding", "setting": "[1]", "value": "no binding"}]}, {"molecule": "SCO1568 59bp (dsDNA) DNA 1: CTCTGGGTGTGCGTGACTCACCTCACGGGGCGGTCACGTTCCTGCGGGGCGGTGGTCTG DNA 2: CAGACCACCGCCCCGCAGGAACGTGACCGCCCCGTGAGGTGAGTCACGCACACCCAGAG", "values": [{"measurement": "binding result", "setting": "MtrA (MtrASCO) [2]", "value": "binds"}]}, {"molecule": "SCO7458 59bp (dsDNA) DNA 1: GGGCGACCGGTGGTCACCTGGTGTAACAGTCTTCTTATGATCTGTAGACGAAATGATCG DNA 2: CGATCATTTCGTCTACAGATCATAAGAAGACTGTTACACCAGGTGACCACCGGTCGCCC", "values": [{"measurement": "binding result", "setting": "MtrA (MtrASCO) [2]", "value": "binds"}]}, {"molecule": "SCO3863 59bp (dsDNA) DNA 1: CGCCCGACTATACACACCGGCCGATACCGATCGGTGACCTGCGTCGGCGGTCAACTGCC DNA 2: GGCAGTTGACCGCCGACGCAGGTCACCGATCGGTATCGGCCGGTGTGTATAGTCGGGCG", "values": [{"measurement": "binding result", "setting": "MtrA (MtrASCO) [2]", "value": "binds"}]}, {"molecule": "SCO1189 59bp (dsDNA) DNA 1: CTCCCGCCGACCTCACGTGCCGGTTACAAATCGCTCAACCTCTGGTTGCGAAGCGGTGA DNA 2: TCACCGCTTCGCAACCAGAGGTTGAGCGATTTGTAACCGGCACGTGAGGTCGGCGGGAG", "values": [{"measurement": "binding result", "setting": "MtrA (MtrASCO) [3]", "value": "binds"}]}, {"molecule": "SCO3485 59bp (dsDNA) DNA 1: ATGCCCGTTGTCGACCAGGCGTGTCACCGTATGGTAAACCGGTTATCTGTGACGCGCGG DNA 2: CCGCGCGTCACAGATAACCGGTTTACCATACGGTGACACGCCTGGTCGACAACGGGCAT", "values": [{"measurement": "binding result", "setting": "MtrA (MtrASCO) [3]", "value": "binds"}]}, {"molecule": "SCO2136 59bp (dsDNA) DNA 1: TTCCGCCACAACTCACCTGCAGTGACGTCTTCCTGACACCACGTTGCGTGACGGTTCCG DNA 2: CGGAACCGTCACGCAACGTGGTGTCAGGAAGACGTCACTGCAGGTGAGTTGTGGCGGAA", "values": [{"measurement": "binding result", "setting": "MtrA (MtrASCO) [2]", "value": "binds"}]}, {"molecule": "SCO1489 (bldD) 59bp WT (dsDNA) DNA 1: TGACGCAGCAGAGTAACGCTGCGTAACCTCACAGTGAGTTACCAGCCGCGCGGCCGACA DNA 2: TGTCGGCCGCGCGGCTGGTAACTCACTGTGAGGTTACGCAGCGTTACTCTGCTGCGTCA", "values": [{"measurement": "binding result", "setting": "MtrA (MtrASCO) [4]", "value": "binds"}]}, {"molecule": "SCO2210 59bp (dsDNA) DNA 1: GCCGCGCCACAACGAGCCCGGGTAACACGGGGTTCACCTACGGGCAACGGTCGGGAAAT DNA 2: ATTTCCCGACCGTTGCCCGTAGGTGAACCCCGTGTTACCCGGGCTCGTTGTGGCGCGGC", "values": [{"measurement": "binding result", "setting": "MtrA (MtrASCO) [2]", "value": "binds"}]}, {"molecule": "SCO7434 59bp (dsDNA) DNA 1: ATACCGGTCCGGTGTGTCTGCGTGACGGAGCGGTTACGGACAGCATCATGAGCTCTGCA DNA 2: TGCAGAGCTCATGATGCTGTCCGTAACCGCTCCGTCACGCAGACACACCGGACCGGTAT", "values": [{"measurement": "binding result", "setting": "MtrA (MtrASCO) [2]", "value": "binds"}]}, {"molecule": "SCO5583 59bp (dsDNA) DNA 1: ACGACGACCGGCCCCGGCCGTTCACCCACGCGTAACACGCACCGTGCCTTCGTCACGGC DNA 2: GCCGTGACGAAGGCACGGTGCGTGTTACGCGTGGGTGAACGGCCGGGGCCGGTCGTCGT", "values": [{"measurement": "binding result", "setting": "MtrA (MtrASCO) [2]", "value": "binds"}]}, {"molecule": "whiI-a 59bp WT (SCO6029-a) (dsDNA) DNA 1: GATCTGGTGAGTAACAATCCGAGCAATTCGGACACACTGTCGATCATTCGAAGATCGAA DNA 2: TTCGATCTTCGAATGATCGACAGTGTGTCCGAATTGCTCGGATTGTTACTCACCAGATC", "values": [{"measurement": "binding result", "setting": "MtrA (MtrASCO) [5]", "value": "binds"}]}, {"molecule": "SCO3561 59bp (dsDNA) DNA 1: AATTACTCTCTATTTACTCGCTGTAATCGAACGGATACTCAGGAGACGGGAACATGTCA DNA 2: TGACATGTTCCCGTCTCCTGAGTATCCGTTCGATTACAGCGAGTAAATAGAGAGTAATT", "values": [{"measurement": "binding result", "setting": "MtrA (MtrASCO) [2]", "value": "binds"}]}, {"molecule": "whiI-b 59bp WT (SCO6029-b) (dsDNA) DNA 1: TCACAGTCGTCTTCGGCACCGAACGCGTCCGCCTTTAGAGAATGATCACGATCTGGTGA DNA 2: TCACCAGATCGTGATCATTCTCTAAAGGCGGACGCGTTCGGTGCCGAAGACGACTGTGA", "values": [{"measurement": "binding result", "setting": "MtrA (MtrASCO) [6]", "value": "binds"}]}]}
